The target of this assay is His-tagged talin head (1–406 aa) (human, UniProt Q9Y490 1-406). Put plainly: BLI.

This note sets out measurements from paper PMC4003243 (The Journal of Cell Biology, 2014).

Where no end group is shown, it is not given here.

Chain of His-tagged talin head (1–406 aa) (Q9Y490 1-406): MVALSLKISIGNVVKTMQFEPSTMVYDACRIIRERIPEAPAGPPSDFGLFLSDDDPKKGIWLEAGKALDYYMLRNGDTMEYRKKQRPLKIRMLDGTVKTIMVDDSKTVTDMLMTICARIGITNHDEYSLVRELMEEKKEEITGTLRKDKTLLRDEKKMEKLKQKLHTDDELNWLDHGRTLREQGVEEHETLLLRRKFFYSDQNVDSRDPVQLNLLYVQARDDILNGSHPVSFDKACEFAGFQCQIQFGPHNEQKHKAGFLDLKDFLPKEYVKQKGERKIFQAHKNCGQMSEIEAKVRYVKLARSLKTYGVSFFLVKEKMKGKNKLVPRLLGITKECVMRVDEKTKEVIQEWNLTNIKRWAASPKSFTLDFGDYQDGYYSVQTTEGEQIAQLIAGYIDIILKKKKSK

KLLITIHDRKEFAKFEEERARAKWVENPLYKEATSTFTNITYRGT (domain or fragment, mouse, UniProt O54890 741-787, looked up, also: GST fusion) [GST–β3-tail, β3-VE chimera]: the “fold higher affinity over wild-type β3-tail” value is ~20 fold. Take KLLITIHDRKEFAKFEEERARAKWDTANNPLYKEATSTFTNITYRGT (domain or fragment, mouse, UniProt O54890 741-787, looked up, also: GST fusion) [GST–β3-tail (716–762 aa), wild type]: the binding result is “binds”.
